Biological target: SARS-CoV-2 Spike RBD K417N/N501Y (SARS-CoV-2) (UniProt P0DTC2)

| Substance | Kd | koff | kon |
| --- | --- | --- | --- |
| ACE2(T27Y/H34A/H374N)-IgG1Fc (from UniProt Q9BYF1 18-615) (Fc fusion) | 0.447 nM | 0.000334 s⁻¹ | 747000 M⁻¹ s⁻¹ |
| ACE2-Fc IgG Hybrid Protein (ACE2-IgG1Fc, wildtype) (Fc fusion) | 7.6 nM | 0.00347 s⁻¹ | 457000 M⁻¹ s⁻¹ |
